According to patent US20150344540A1, “NOVEL GLP-1 RECEPTOR AGONISTS WITH CHOLESTEROL EFFLUX ACTIVITY” (NOVO NORDISK A/S, priority 2012, published 2015):
Where no end group is shown, it is not given here. [ ]: non-standard residue; d: D form. Aib = CC(C)(N)C(=O)O

target: human GLP-1 receptor (human, UniProt P43220); experiment: cell-based or functional assay

Binder | CRE luciferase EC50, 0% HSA | CRE luciferase EC50, 1% HSA
H[Aib]EGTFTSDVSSYLEGEAVKEFIAWLVEKVKGFL-NH2 (N-terminus assumed; SMILES CC[C@H](C)[C@H](NC(=O)[C@H](Cc1ccccc1)NC(=O)[C@H](CCC(=O)O)NC(=O)[C@H](CCCCN)NC(=O)[C@@H](NC(=O)[C@H](C)NC(=O)[C@H](CCC(=O)O)NC(=O)CNC(=O)[C@H](CCC(=O)O)NC(=O)[C@H](CC(C)C)NC(=O)[C@H](Cc1ccc(O)cc1)NC(=O)[C@H](CO)NC(=O)[C@H](CO)NC(=O)[C@@H](NC(=O)[C@H](CC(=O)O)NC(=O)[C@H](CO)NC(=O)[C@@H](NC(=O)[C@H](Cc1ccccc1)NC(=O)[C@@H](NC(=O)CNC(=O)[C@H](CCC(=O)O)NC(=O)C(C)(C)NC(=O)[C@@H](N)Cc1c[nH]cn1)[C@@H](C)O)[C@@H](C)O)C(C)C)C(C)C)C(=O)N[C@@H](C)C(=O)N[C@@H](Cc1c[nH]c2ccccc12)C(=O)N[C@@H](CC(C)C)C(=O)N[C@H](C(=O)N[C@@H](CCC(=O)O)C(=O)N[C@@H](CCCCN)C(=O)N[C@H](C(=O)N[C@@H](CCCCN)C(=O)NCC(=O)N[C@@H](Cc1ccccc1)C(=O)N[C@@H](CC(C)C)C(N)=O)C(C)C)C(C)C) [[Aib8,Glu23,Val25,Glu34,Lys35,Val36,Lys37]-GLP-1-(7-37)-peptidyl-Gly-Phe-Leu amide] | 0.129 nM | 0.032 nM
H[Aib]EGTFTSDVSSYLEGEAVKEFIAWLVEKVKEEL-NH2 (N-terminus assumed; SMILES CC[C@H](C)[C@H](NC(=O)[C@H](Cc1ccccc1)NC(=O)[C@H](CCC(=O)O)NC(=O)[C@H](CCCCN)NC(=O)[C@@H](NC(=O)[C@H](C)NC(=O)[C@H](CCC(=O)O)NC(=O)CNC(=O)[C@H](CCC(=O)O)NC(=O)[C@H](CC(C)C)NC(=O)[C@H](Cc1ccc(O)cc1)NC(=O)[C@H](CO)NC(=O)[C@H](CO)NC(=O)[C@@H](NC(=O)[C@H](CC(=O)O)NC(=O)[C@H](CO)NC(=O)[C@@H](NC(=O)[C@H](Cc1ccccc1)NC(=O)[C@@H](NC(=O)CNC(=O)[C@H](CCC(=O)O)NC(=O)C(C)(C)NC(=O)[C@@H](N)Cc1c[nH]cn1)[C@@H](C)O)[C@@H](C)O)C(C)C)C(C)C)C(=O)N[C@@H](C)C(=O)N[C@@H](Cc1c[nH]c2ccccc12)C(=O)N[C@@H](CC(C)C)C(=O)N[C@H](C(=O)N[C@@H](CCC(=O)O)C(=O)N[C@@H](CCCCN)C(=O)N[C@H](C(=O)N[C@@H](CCCCN)C(=O)N[C@@H](CCC(=O)O)C(=O)N[C@@H](CCC(=O)O)C(=O)N[C@@H](CC(C)C)C(N)=O)C(C)C)C(C)C) [[Aib8,Glu23,Val25,Glu34,Lys35,Val36,Lys37]-GLP-1-(7-37)-peptidyl-Glu-Glu-Leu amide] | 0.025 nM | 0.016 nM
H[Aib]EGTFTSDVSSYLEGEAVKEFIAWLVKK[Aib]KEFL-NH2 (N-terminus assumed; SMILES CC[C@H](C)[C@H](NC(=O)[C@H](Cc1ccccc1)NC(=O)[C@H](CCC(=O)O)NC(=O)[C@H](CCCCN)NC(=O)[C@@H](NC(=O)[C@H](C)NC(=O)[C@H](CCC(=O)O)NC(=O)CNC(=O)[C@H](CCC(=O)O)NC(=O)[C@H](CC(C)C)NC(=O)[C@H](Cc1ccc(O)cc1)NC(=O)[C@H](CO)NC(=O)[C@H](CO)NC(=O)[C@@H](NC(=O)[C@H](CC(=O)O)NC(=O)[C@H](CO)NC(=O)[C@@H](NC(=O)[C@H](Cc1ccccc1)NC(=O)[C@@H](NC(=O)CNC(=O)[C@H](CCC(=O)O)NC(=O)C(C)(C)NC(=O)[C@@H](N)Cc1c[nH]cn1)[C@@H](C)O)[C@@H](C)O)C(C)C)C(C)C)C(=O)N[C@@H](C)C(=O)N[C@@H](Cc1c[nH]c2ccccc12)C(=O)N[C@@H](CC(C)C)C(=O)N[C@H](C(=O)N[C@@H](CCCCN)C(=O)N[C@@H](CCCCN)C(=O)NC(C)(C)C(=O)N[C@@H](CCCCN)C(=O)N[C@@H](CCC(=O)O)C(=O)N[C@@H](Cc1ccccc1)C(=O)N[C@@H](CC(C)C)C(N)=O)C(C)C) [[Aib8,Glu23,Val25,Lys35,Aib36,Lys37]-GLP-1-(7-37)-peptidyl-Glu-Phe-Leu amide] | 0.921 nM | 0.276 nM
H[Aib]EGTFTSDVSSYLEGEAVKEFIAWLVEKVKEGL-NH2 (N-terminus assumed; SMILES CC[C@H](C)[C@H](NC(=O)[C@H](Cc1ccccc1)NC(=O)[C@H](CCC(=O)O)NC(=O)[C@H](CCCCN)NC(=O)[C@@H](NC(=O)[C@H](C)NC(=O)[C@H](CCC(=O)O)NC(=O)CNC(=O)[C@H](CCC(=O)O)NC(=O)[C@H](CC(C)C)NC(=O)[C@H](Cc1ccc(O)cc1)NC(=O)[C@H](CO)NC(=O)[C@H](CO)NC(=O)[C@@H](NC(=O)[C@H](CC(=O)O)NC(=O)[C@H](CO)NC(=O)[C@@H](NC(=O)[C@H](Cc1ccccc1)NC(=O)[C@@H](NC(=O)CNC(=O)[C@H](CCC(=O)O)NC(=O)C(C)(C)NC(=O)[C@@H](N)Cc1c[nH]cn1)[C@@H](C)O)[C@@H](C)O)C(C)C)C(C)C)C(=O)N[C@@H](C)C(=O)N[C@@H](Cc1c[nH]c2ccccc12)C(=O)N[C@@H](CC(C)C)C(=O)N[C@H](C(=O)N[C@@H](CCC(=O)O)C(=O)N[C@@H](CCCCN)C(=O)N[C@H](C(=O)N[C@@H](CCCCN)C(=O)N[C@@H](CCC(=O)O)C(=O)NCC(=O)N[C@@H](CC(C)C)C(N)=O)C(C)C)C(C)C) [[Aib8,Glu23,Val25,Glu34,Lys35,Val36,Lys37]-GLP-1-(7-37)-peptidyl-Glu-Gly-Leu amide] | 0.011 nM | 0.003 nM
H[Aib]EGTFTSDVSSYLEGEAVKEFIAWLVEKVKEKL-NH2 (N-terminus assumed; SMILES CC[C@H](C)[C@H](NC(=O)[C@H](Cc1ccccc1)NC(=O)[C@H](CCC(=O)O)NC(=O)[C@H](CCCCN)NC(=O)[C@@H](NC(=O)[C@H](C)NC(=O)[C@H](CCC(=O)O)NC(=O)CNC(=O)[C@H](CCC(=O)O)NC(=O)[C@H](CC(C)C)NC(=O)[C@H](Cc1ccc(O)cc1)NC(=O)[C@H](CO)NC(=O)[C@H](CO)NC(=O)[C@@H](NC(=O)[C@H](CC(=O)O)NC(=O)[C@H](CO)NC(=O)[C@@H](NC(=O)[C@H](Cc1ccccc1)NC(=O)[C@@H](NC(=O)CNC(=O)[C@H](CCC(=O)O)NC(=O)C(C)(C)NC(=O)[C@@H](N)Cc1c[nH]cn1)[C@@H](C)O)[C@@H](C)O)C(C)C)C(C)C)C(=O)N[C@@H](C)C(=O)N[C@@H](Cc1c[nH]c2ccccc12)C(=O)N[C@@H](CC(C)C)C(=O)N[C@H](C(=O)N[C@@H](CCC(=O)O)C(=O)N[C@@H](CCCCN)C(=O)N[C@H](C(=O)N[C@@H](CCCCN)C(=O)N[C@@H](CCC(=O)O)C(=O)N[C@@H](CCCCN)C(=O)N[C@@H](CC(C)C)C(N)=O)C(C)C)C(C)C) [[Aib8,Glu23,Val25,Glu34,Lys35,Val36,Lys37]-GLP-1-(7-37)-peptidyl-Glu-Lys-Leu amide] | 0.059 nM | 0.029 nM
